{"source": "patent US20230028880A1", "about": "“CD38-BINDING AGENTS AND USES THEREOF” (Biohaven Therapeutics Ltd., priority 2019, published 2023)", "molecules": {"B1": {"name": "I-27 (peptide)", "peptide 1": "ARXYHDGVLXXDC", "peptide 2": "DCAWHLGELVWCT", "modifications": "not fully specified; Cys2-Cys12 disulfide; N-terminus extended by D-Glu(side chain amide of 12-aminododecanoic acid)-PEG6-; X3 and X11 = Ahp ((S)-2-aminoheptanoic acid), X10 = Bph (4-biphenylylalanine); N-terminal -C(O)CH2- (from 2-bromoacetic acid) thioether-linked to S of Cys13; C-terminus carries PEG10 linker"}, "B2": {"name": "I-32 (peptide)", "peptide 1": "{‑C(O)CH2‑}-AR[Ahp(2)]YHDGVL[Bip][Ahp(2)]DC-{branched linker from compound 8 (carries γGlu-hexadecanedioic acid)}", "peptide 2": "DDCAWHLGELVWCT-NH2", "modifications": "disulfide II:3-II:13; not fully specified (N-terminus); reading uncertain; also: N-terminus of chain 2 amide-bonded to the branched linker (one conjugate), thioether at chain A 13 to a chain's N-terminus via -C(O)-CH2- (from 2-bromoacetic acid)", "notes": "One covalent conjugate"}, "B3": {"name": "I-33 (peptide)", "peptide 1": "ARXYHDGVLXXDC", "peptide 2": "DCAWHLGELVWCT", "modifications": "Cys2-Cys12 disulfide; N-terminus extended by PEG8-; X3 and X11 = Ahp ((S)-2-aminoheptanoic acid), X10 = Bph (4-biphenylylalanine); N-terminal -C(O)CH2- (from 2-bromoacetic acid) thioether-linked to S of Cys13; C-terminus carries PEG8 linker"}, "B4": {"name": "I-39 (peptide)", "peptide 1": "ARXYHDGVLXXDC", "peptide 2": "DCAWHLGELVWCT", "modifications": "Cys2-Cys12 disulfide; N-terminus extended by hydrazinecarbonyl (urea from Boc-NH-NH2 and CDI)-PEG6-; X3 and X11 = Ahp ((S)-2-aminoheptanoic acid), X10 = Bph (4-biphenylylalanine); N-terminal -C(O)CH2- (from 2-bromoacetic acid) thioether-linked to S of Cys13; C-terminus carries PEG10 linker"}, "B5": {"name": "I-40 (peptide)", "peptide 1": "Ac-AR[Ahp(2)]YHDGVL[Bip][Ahp(2)]DCG", "peptide 2": "GDCAWHLGELVWCT-NH2", "modifications": "disulfide II:3-II:13; also: C-terminal Gly of chain 1 amide-bonded to N-terminal Gly of chain 2 (one chain), thioether at chain A 13 to a chain's N-terminus", "notes": "The section is headed I-40, its product is called compound 523; also called compound 523"}}, "note": "Several values for one entry are separate records, joined by “and”; a condition that tells them apart may be missing. Identical values can stand only once. Bridges are numbered along the chain shown (N, C = ends). Roman numbers before positions name the chains, in order. Where no end group is shown, it is not given here. [ ]: non-standard residue; d: D form. branched linker from compound 8 (carries γGlu-hexadecanedioic acid) = not defined here; Bip = N[C@@H](Cc1ccc(-c2ccccc2)cc1)C(=O)O; Ahp(2) = CCCCC[C@H](N)C(=O)O"}
{"molecular_target": "CD38 on Daudi cells (ATCC CCL-213) (human) (UniProt P28907)", "test": "cell-based or functional assay", "units": {"EC50 (nM), killing of target cells": "nM", "% dead cells at 0.03 nM": "%"}}
{"molecule": "B1", "% dead cells at 1 nM": "5.6% and 5.7%", "% dead cells at 3 nM": "8.2% and 7.7%", "% dead cells at 10 nM": "7.9% and 8.3%", "% dead cells at 30 nM": "9.4% and 10.3%", "% dead cells at 100 nM": "10.3% and 9.1%", "EC50 (nM), killing of target cells": 2.4}
{"molecule": "B2", "% dead cells at 1 nM": "14.4% and 13.5%", "% dead cells at 3 nM": "12.8% and 13.5%", "% dead cells at 10 nM": "13% and 13.3%", "% dead cells at 30 nM": "14.7% and 14.3%", "% dead cells at 100 nM": "17.7% and 17.2%", "% dead cells at 300 nM": "19.5% and 20.1%", "% dead cells at 1000 nM": "19.7% and 20.4%", "% dead cells at 3000 nM": "16.9% and 16.8%"}
{"molecule": "B3", "% dead cells at 10 nM": "23.4% and 22.3%", "% dead cells at 30 nM": "28.7% and 28.8%", "% dead cells at 100 nM": "32.8% and 31.3%", "% dead cells at 300 nM": "31.9% and 31.6%", "% dead cells at 1000 nM": "22.6% and 23.3%", "% dead cells at 3000 nM": "16.6%", "EC50 (nM), killing of target cells": 11}
{"molecule": "B4", "% dead cells at 0.03 nM": 11, "% dead cells at 0.3 nM": "11.9% and 12.1%", "% dead cells at 1 nM": "15.7% and 16.5%", "% dead cells at 3 nM": "17.7% and 15.9%", "% dead cells at 10 nM": "22.4% and 21.4%", "% dead cells at 30 nM": "22.7% and 22.2%", "% dead cells at 100 nM": "23.4% and 25.4%", "% dead cells at 300 nM": "21.3% and 21.5%"}
{"molecule": "B5", "EC50 (nM), killing of target cells": 1.9}
{"molecular_target": "T1, CD38 (human, UniProt P28907 1-300)", "test": "cell-based or functional assay", "units": {"RLU at 100 nM": "RLU"}}
{"molecule": "B2", "RLU at 100 nM": 21800}
{"molecular_target": "T1, CD38", "test": "cell-based or functional assay", "remark": "another data set of the same source", "units": {"EC50 (nM), ADCC reporter cells": "nM"}}
{"molecule": "B1", "EC50 (nM), ADCC reporter cells": 3}
{"molecule": "B2", "EC50 (nM), ADCC reporter cells": 63}
{"molecule": "B3", "EC50 (nM), ADCC reporter cells": 4.3}
{"molecule": "B4", "EC50 (nM), ADCC reporter cells": 0.61}
{"molecule": "B5", "EC50 (nM), ADCC reporter cells": 50}
{"molecular_target": "CD38 (human) (UniProt P28907)", "test": "ELISA; larger values represent binding"}
{"molecule": "Ala Arg Ahp Tyr His Asp Gly Val Leu Bph Ahp Asp Cys (SEQ ID NO.1) (peptide)", "Binding Assay (ELISA signal)": 1.97}
{"molecule": "Ala Leu His MePhe Val Leu Pro Bph Val Trp Val Cys (SEQ ID NO.2) (peptide)", "Binding Assay (ELISA signal)": 1.69}
{"molecular_target": "CD38 on Daudi cells (human) (UniProt P28907)", "test": "ternary binding, flow cytometry: Daudi cells + PE human IgG1k"}
{"molecule": "B1", "MFI at 0.03 nM": "2140 and 3880", "MFI at 0.1 nM": "2880 and 2430", "MFI at 0.3 nM": "3560 and 3190", "MFI at 1 nM": "3130 and 2450", "MFI at 3 nM": "3950 and 3970", "MFI at 10 nM": "3320 and 9770", "MFI at 30 nM": "7880 and 8230", "MFI at 100 nM": "11500 and 10800", "MFI at 300 nM": "7180 and 11100", "MFI at 3000 nM": "3940 and 5160"}
{"molecule": "B2", "MFI at 0.3 nM": "1990 and 1770", "MFI at 1 nM": "2310 and 1770", "MFI at 3 nM": "1690 and 1630", "MFI at 10 nM": "2890 and 1820", "MFI at 30 nM": "4350 and 2820", "MFI at 100 nM": "13800 and 19500", "MFI at 300 nM": "26600 and 20600", "MFI at 1000 nM": "28500 and 32400", "MFI at 3000 nM": "23000 and 26100"}
{"molecule": "B3", "MFI at 1 nM": "3470 and 3690", "MFI at 3 nM": "3660 and 1850", "MFI at 10 nM": "21100 and 13600", "MFI at 30 nM": 23700, "MFI at 100 nM": "31900 and 24200", "MFI at 300 nM": "24100 and 34300", "MFI at 1000 nM": "17400 and 22200", "MFI at 3000 nM": "28400 and 12400"}
{"molecule": "B4", "MFI at 0.03 nM": "5280 and 4130", "MFI at 0.1 nM": "6760 and 4610", "MFI at 1 nM": "4580 and 5160", "MFI at 3 nM": "6080 and 8740", "MFI at 10 nM": "5300 and 7840", "MFI at 30 nM": "9350 and 9460", "MFI at 100 nM": "16400 and 17300", "MFI at 300 nM": "12200 and 16900", "MFI at 1000 nM": "9710 and 12000", "MFI at 3000 nM": "10100 and 15000"}
{"molecule": "B5", "MFI at 0.03 nM": "819 and 477", "MFI at 0.1 nM": "956 and 1170", "MFI at 0.3 nM": "1150 and 1290", "MFI at 1 nM": "1100 and 966", "MFI at 3 nM": "900 and 1070", "MFI at 10 nM": "1950 and 1960", "MFI at 30 nM": "2160 and 2640", "MFI at 100 nM": "6090 and 6880", "MFI at 300 nM": "7340 and 7420", "MFI at 1000 nM": "7290 and 7250", "MFI at 3000 nM": "7330 and 6680"}
{"molecular_target": "T1, CD38", "test": "ternary binding, flow cytometry: PE-labelled human IgG1k recruited to Daudi cells", "method": "Various technologies can be utilized to assess and/or characterize recruitment of antibodies to target cells, e.g., cancer cells. One such assay is a ternary binding assay. An exemplary protocol is described herein. Compounds were diluted in DMSO (MP 191418) to 1000× the starting concentration used in the assay into a 96 well polypropylene plate (Corning 3357). They were then serially diluted in ½ log increments to generate 8-12 concentrations in DMSO (assay dependent). These DMSO stocks were then step diluted 1/100 into PBS (VWR Cat. #20012043). Step diluted compound range was then added into the polypropylene assay plate 1/10 the volume of the assay volume. […] The cells were then added into the polypropylene plate with the step diluted compounds and incubated at 37° C. for 30 min. At the end of the incubation, the cells were centrifuged and washed 2× with How buffer containing 0.5% Tween 20 (BP337-500). Samples were analyzed on a BD FacsCelesta. Mean fluorescence was analyzed using Graphpad Prism and curves were fit using log(inhibitor) vs. response—Variable slope (four parameters).", "units": {"IC50": "nM"}}
{"molecule": "B1", "IC50": 6}
{"molecule": "B2", "IC50": 88}
{"molecule": "B3", "IC50": 9.3}
{"molecule": "B4", "IC50": 3.3}
{"molecule": "B5", "IC50": 50}
